Laboratory results reported in patent US20160324936.

System: GST-p21

Substance: GFP-tagged wild-type 34 kDa human PIM-1 (GFP-PIM-wt)
- in vitro kinase assay: 32P-labeling of GST-p21, SDS-PAGE and autoradiography: Pim-wt overexpression phosphorylates p21

Substance: GFP-tagged kinase dead (K67M) mutant of PIM-1 (GFP-PIM-DN)
- in vitro kinase assay: 32P-labeling of GST-p21, SDS-PAGE and autoradiography: this activity was abolished in the Pim-DN construct
